Among the data in a protein production outcome set (Wang et al. 2014) are protein production values, retold here.

This data set is described as follows: label from the status in PepcDB records.
For the sequence “MDQSTRARTRTAFAIDAVGQGAKAAVKAVWWTATGGLARSLTRPTEGPQARRFTPAAPPPVPGSLRRAYLEAFEKDARDVAAGLYPAIEDGPIRPSAALREAVDFLVDAFEVDQRRRRGDGAEVRNAADPSVYPNYYRQNFHYQSGGWFTAESAGRYDAQVEALFSGTAGAMRRRGLSLLARHWRGRDHRDAKILDVACGSGAFLKDLSAAFPRAALAGLDLSEAYLAKARKRTAVGGVKAKAETLPFGDATLDAVTCVYLFHELPPRVRPVVAASLARVLKPGGVLVLVDSVQPVDTPDLARLLEAFPVYFHEPYYSSYAETNLEALFAEAGLRLLDQDCAFLTKAMLFVKPGG”, the protein production entry was “failed”.

Turning to “MDRADLRIAVLMGTKDGAPFIDEQLQSLLAQSHPLIDLWISDDGSVDGTVPIIEAWKSRWTKGRVTLVQGPREGFAANFRSMILDRRIDADFYAFSDQDDVWEPDRLESAVQWMQAFGAEPPLMFCSRTATMTETGSLAGHSPLFRRPPSFRNALVQSIAGGNTILLNRAARDLLARASARTGFVSHDWWAYLVVTGAGGVVHYDPRPLVRYRQHAANLVGANVSWAARVSRLGRLFKGEFADWTDLNLAGLAVNRDLLTPDAATCLDLFASGRQGSLFQRLRTLLVSGVYRQTLAGTLGLYLAFVLGRILEHHHHHH”, the protein production entry is “failed”.

In the case of “MDRGGVLRVAAAALPAYAYFYNVGSIGFWLPLHVRELGWPYTYITLIATWYFVAVTLATPLVGLLSDLTRRPGYILAGGMAVVAATSVAIPHVENPPLLMALRALQGLGLAVGLPIALGSLSLIQGVRRGVASTVIASGLGMSGGAFLSGLMVEYLGFPALFYAAAVPAALSTLVALGWRPPPPPSGSPGLLAALRSMPWEVLVVMAGIAVRNTFASGVFSVVSIIFNKIVGISYTATGVVLAINPAVQASVTTVFERIMRGRALLLYSTGLSGTALAFYLYLTAGSALDLAAAQIALGAFYGATVVSGNTMIIALAPSEIRYTASSLYTFAFNIGWILGTSIAGKVMDAAGVDAWIKLAIAGTLVSGLIPLTLLASPRARRI”, the protein production entry is “failed”.

As for “MDRRIAMSLQVLGAGLGRTGTLSLKFALEHLGFGPCYHATEVAANMRTALPLWNAAERGAADWSAIFAGYRSSTDHPGCYYWRQLIEVYPQAKVVLTVRDPDSWFESVTQTILMPGRKSTFVGPEGETFSTFLKQQMGGRSQDRAFMVDYFNRWNQAVIDAVPSDRLLVFSSRQGWAPLCGFLSVPVPHKPYPHLHARPRLRWFTRGLRLPDDVAARERHVREYLQYLREDLFGLEHHHHHH”, the protein production result is on record as “not failed”.

Take “MDRSERLIQLISEEGIDAFLIMNIENSARASSVYFSGFTGSFSIILISENTRLLITDSRYTVQAKQETDFEVREVKGGDFIDVLKKTVNDLKIKTIALEEERVSLSLFRRISSAFGDRKFIGIDDEVKQMRMVK”: the protein production result is given as “failed”.

Turning to “MDRSLLMAIIMLVLGNNIVILSDSLIKLLDGFEAPFQFVLYRQISATLMLLPFMLLFKRPLLPKNIRWHATRAHIFLLGTVFMVISLTTLPLATANAIFYAAPIITVVLARMFFKERVTRLSLITAVLGMVGVLVIVNPSSTNIFALAALVVATTLALNNLLVKKLPAEHSILDTLYLTNLLGIPLASAMAWFEGASFDVSTFLISVGSSLFAMIYAGTCVFAYRAAESNKVTSAEYTGLIGAVILGIVFFTETPDARFYIGSVLIIAPLTVLTLRNSNRSA”, the protein production result was “failed”.

As to “MDRYIDGFMKWMPESLFICFILTFLVVTMSVLMTDSPFIGTEKTGGIIYGWVNGFWGLLSFAMQMTILLATGNAVASSPPAHKMFKSLAKLPQTRTQIFIFSIVVGSIFGFLHWGLGMMVAIVFGKELLVQARQKGIKVHTPLFVATLFFTFLPATSGLSGAAVLYSATPDYLRNSVADAYKQVVPESVPLTESVLNLPFISLLVVCMLVPLCFALLAHPKDETKIMELDDEIYHHSLDTASHVVIARNTPAEKMNASRLVMYLVGGAIVSYSLYHFSVVGLSGLDLNCFNFLFLGLGLLLCGQQGPEYYGSLFKDGVMSSWGLVLQFPFYAGIFGIIQSTGLGLEISHFFVAISNGTTWPVFAYLYSALLNIAVPSGGSKFVIEAPYIVPATIEVGNDLGKILQAYQLGDATTNLIVPFWALSYLSNFKLKFNQIVAYTIPCVLVVTGIAIIYLFVF”, the protein production entry is listed as “failed”.

For the sequence “MDSDETGFEHSGLWVSVLAGLLLGACQAHPIPDSSPLLQFGGQVRQRYLYTDDAQQTEAHLEIREDGTVGGAADQSPESLLQLKALKPGVIQILGVKTSRFLCQRPDGALYGSLHFDPEACSFRELLLEDGYNVYQSEAHGLPLHLPGNKSPHRDPAPRGPARFLPLPGLPPALPEPPGILAPQPPDVGSSDPLSMVGPSQGRSPSYAS”, the protein production result is “failed”.

In the case of “MDSEKALELVKHGATLLFLDVPQYTLVGIDTQIFAVGPAFKGIKMIPPGIHFVFYSSSTRDGREFSPTIGFFVDVAPSQVIVRKWNQQDEWLTKVSEEEEERYSQAVRSLEFDKNLGPYNLKQYGEWRHLSNYITKDVVEKFEPVGGEITVTYESAILKGGPKTAMEIALDTQMKKSKFTTSSTEQPKGNRFYYTSIPRIIKHKGMSGQELTSMNLDKTQLLESVLSKEYKDSEDLLLGELQFSFVAFLMGQSLESFMQWKSIVSLLLGCTSAPFQTRSQLFTKFIKVIYHQLKYGLQKENSGPETGIHALLDDSWLASDSFLHFLCKDFFALVEETSVVDGDLLSWTRKFKELLENRLGWEFQKKSAVDGIYFEEDDEYAPVVEMLDESHGEYMDKTT”, the protein production entry was “failed”.

As for “MDSGRLAVIALGGNAIAGPGMDVSVESQTAAVKRASSIIADVLADGWRSVITHGNGPQVGYLSEAFEALPPERPRQPLYIATAMTQAWIGLLLKHSLEEELRRRGLNVLVPVVISRVLVDVSDPSFNNPSKPVGPIYGREEAEELSRRYGWVFKRDPRGGFRRVVPSPRPVSIVDRDLIAEASAESPAVVALGGGGVPVVERPGGVLEPVEAVVDKDLASSLLATQLNADLLVILTDVPGVAVNYGREGERWLRRAAASELKKYLREGHFPPGSMGPKVEAAISFVERTGKPAVIGSLEEARQVLSLQAGTVVMLG”, the protein production entry is listed as “not failed”.

For “MDSITQAALGASIAGAVAGKTLGRSALLTGALLGTLPDLDVVIDYGTAVANFTQHRGFSHSLFILAPLSLLIAWGLWRWKPLISYQRWLALVGLILITHPLLDAFTTYGTQLFWPIGPPVAINSIFIIDPLYTLPLLAGCLAFLYRPPASRTVAAGLLVSSLYLGWTLIAQQIITDRVRPALANAGMEQAALMVQPMPFNTVLWRATAVSAGQRIEVVTGFLDASDELVLERFPRQPELARLVAELPEARRLEWFTGGFLDYQQNGTQITATDIRLGIPGAHPFTFILAETAEDGLQPLASDRLPRPALNRAALPLLWDRMTGQVPVLCLATLSVPNHGNSC”, the protein production result was “failed”.

Regarding “MDSLIPFDYATLRVLWWLLLGALLIGFAVMDGFDLGVAALLPLVAKTDVERRVVLNVVGPVWEGNQVWLITAGGAIFAAWPLLYAASFSGFYLAMMLVLIALILRPVGFKYRSKMEGTRWRSRWDAVLCFCGVVAALVFGVAMGNIILGVPFGFDAATLRPEYEGHFYQLFKPFALLAGLVSVAMMVMHGGVLLAWRTHDPVSSRARNWGRLAALVTAALFVAGGFWVAYGLDGHVITSAVDMHAPSNPMLKTVELQAGGWMANYEKWPLTWIAPALGVGGALLAFVLLSARANVLAFLASSVSIAGIILTVGFALFPFIMPSSSRPGAGLTVWDGSSSLLTLWIMLLAVAFFLPIITVYTAWVYRVMRGKVTEDSVDGTPNSY”, the protein production entry is “failed”.

Consider “MDSLMTLLSVLIPMFAGFFIRVPKPYLPALDKVLSVLVYAVLLLIGVSLSRVEDLGSRLDDMALTVLWLFVCTVGANLLALAVLGKLFP”, for which the protein production entry was “failed”.

For “MDSRSLSVHDGAMQTLTVPDSGLAPLLPGQRLARGVCRHLRSHDFVSVVELVPAPGLRVDVMALGPKGEIWVVECKSSRADYQSDRKWQGYLDWCDRFFFAVDEAFPVDLLPEGTGLMLADGYDAEILRIGPEGRLAPARRKAVIQGFARHAALRLQGLRDPGAFPG”, the protein production result is “failed”.

Turning to “MDSSLSQKFTLAYASLLGVGGLMGYLKRGSKISLVAGGGSAALFYYVYTELPGNPVLASSIGIVGSAALTGMMGSRYLRTRKVVPAGLVSVVSLVMTGAYLHGLIRSS”, the protein production entry is given as “failed”.

With “MDSSSLEQELRWMKLVWEEAPGDKTEGPLTSPGWSTLFQAVWWGAPSLVMQLLRQGSSVEERDHTGRTPLHLAVMRGHAPLVRLLLQRGALAGAADHTGRTPLHEAAWHGHSNVAELLLRRGASAAACSQTGLTPLHGAAALGRTLLVTSFTVASDSGSDVKDVRGWTAAHWAAACGQLAVLELLSAGGNADLDGALLVSAIAGSTSSLQLLLTLGAKVDTQDSTGATALGLAAGLGHHQMLFFLCCLKKKQERKTHCWDWPLANLDPLEEQKLQELSIPRNLASVPAGGWTPSPGYIFRTVDTFVHGQLMPTEERTTECSLAVSVDLISVRDCSPSPPAGFPPVSALTIHPRADGLAQRN”, the protein production entry was “failed”.

Consider “MDSTGASQIVSALDVIYSPKSNNSQRQEAQKFLDEVKLCSESPFWGYEIALQNPTNSILKYFGLGLLDHAVKKNWNDYDEGKRVALRKWVMELNFGVQDYDTRYIKEKLATLWVEVAKRTWGEALKQTNPTEEQLLTSWVDMDNNLFELWNINQSSRELALIIFRILFEDVFLLDDLIVLKRMTVIQPLCVMIVCPIEVFAIKYKFSDKWTKFKANEEGWFSVWIPELNNALQQNNSEYIIRLLETLKTCLNWPLTEVIVRNDVLSSLLTCLSSNIPRAQSMALDSIHILLTRPYSNESHYQMTIDRVFDNMDLLDSVYESLLFDPTDDIDETKYPIIKKFVDMISCLYVCVPKIKETNGQIQKYFKLVLKTTYNPSLIVSGLTLDLWCTCLRNDEYLPKLEKYVIPDLLQFAADALVYYEQIDGHISKKFAEIDFQSKSEFQTFCSTYRKRIRDIIRLISCVELDLTYDWLNNRLNNYFSSPFGQQVLSSTFLDHKLEPYLGALSQYMIVECFINGCIRWKIWYPTGDDYDEKLDSILQKLEILSNQLIALNLREPLLLKKQIQNFALFLTMLKDNVLFTLLEKIITSATMDYPEINLEERGAESDAVRDLRYACGIELNRMALLMPESLKKIYPDLESVIARIMPNLSYHEKISFKSFLLIIVLKSSLDMKEERFAAIVDPELLAWSDKTTVVGLSDLHWFMERLGIVQIAEYFQRRDIDENSDLLSIPIDDEGKELKSELTKRWQSLFPVRATRMFIHYSMQSIKTDEEFKMLQDLWRPRIVPILPYITRLLYQLQSYHDPDNWKGLPTVVQSFVKYSTIERFWEAGASNKSKDEFIDEHMKAMQTLRDFADSVGHIIRYTREYTLLVLSAISSLGSVFYLLDESPDLLLNSIAIFKPGSNEISPGVSTHGWKHIMNIAIRPILKGCPKDCLGKFMPAFLPKLFEILDLLLCQKWSSHMNDMDMNPVPTDDDQMTEEILEENLLRQLTTVVVRIVIDCVGQGNANPNSAKSRLNNHQMEMRKIIFNDLNTLAPFLKLLNHLISFKDTKCSFNSILVMKCCLTSVLNQNNTVDEYFTFEVMKNLLLNVLCNSAFKDSFHEALYAFTVIFLTLCKEYPSARAFLFEISNGYNIDELYRNLRSVDEYKTQRALMIDFIDWVKSTSGKEDGNVDHAGDERKRQEKREAILKKANERLIKKNKENGDMLDDPNIEDGAVGNLFDDN”, for which the protein production entry is “failed”.

On to “MDSVTLACGNGGKETNALIERVFMPYLKEWIVAFDEDAPKFEASGEYCVSTDSFVITPLIFNGGDIGKLCVCGSANDVSVQGGEPLYLNMGFILEEGLEISLLKQILQSIQKELFKANLKLLSLDTKVVPKGSVDKLFINTTCIGKIIKPGISSYHLQQGQAIILSDTIANHGASLFAMRNEIKLKTNLESDCQLLYPLLKPLFLSDLKIDALRDATRGGLASVLNEWANSSRVKIVIEEEKIPLKEETKGICEILGLEPYALANEGVFVLALNQKDAPKALEILKSNEKAKNACVIGKVFENPYPSVVLKNAWGFERILEVPEGELLPRIC”, for which the protein production entry is recorded as “failed”.
